Reference: IntAct's records for PubMed 20562859

Tests used:
echa_human HADHA = echa_human HADHA (UniProt P40939)
tbc15_human TBC1D15 = target: T1, tbc15_human TBC1D15 (UniProt Q8TC07)
T1 sequence: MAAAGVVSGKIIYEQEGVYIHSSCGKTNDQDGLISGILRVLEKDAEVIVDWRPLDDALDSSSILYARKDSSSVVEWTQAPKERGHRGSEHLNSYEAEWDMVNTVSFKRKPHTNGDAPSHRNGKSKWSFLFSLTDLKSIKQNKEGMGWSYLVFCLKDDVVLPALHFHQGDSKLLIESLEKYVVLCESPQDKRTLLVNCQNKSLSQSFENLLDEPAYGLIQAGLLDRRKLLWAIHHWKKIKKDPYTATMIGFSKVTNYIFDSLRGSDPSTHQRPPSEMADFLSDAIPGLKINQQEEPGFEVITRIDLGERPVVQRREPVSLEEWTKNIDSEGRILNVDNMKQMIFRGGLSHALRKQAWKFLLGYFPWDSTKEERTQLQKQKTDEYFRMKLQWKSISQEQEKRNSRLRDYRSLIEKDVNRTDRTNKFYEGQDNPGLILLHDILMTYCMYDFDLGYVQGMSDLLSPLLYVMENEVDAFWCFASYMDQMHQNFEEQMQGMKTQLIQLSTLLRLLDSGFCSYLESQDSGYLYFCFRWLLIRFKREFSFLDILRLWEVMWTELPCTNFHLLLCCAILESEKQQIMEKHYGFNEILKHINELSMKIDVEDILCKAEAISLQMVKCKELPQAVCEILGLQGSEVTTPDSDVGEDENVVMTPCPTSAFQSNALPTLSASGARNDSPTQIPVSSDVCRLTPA

nedd4_human NEDD4 = nedd4_human NEDD4 (UniProt P46934)
rn123_human RNF123 = target: T2, rn123_human RNF123 (UniProt Q5XPI4)
T2 sequence: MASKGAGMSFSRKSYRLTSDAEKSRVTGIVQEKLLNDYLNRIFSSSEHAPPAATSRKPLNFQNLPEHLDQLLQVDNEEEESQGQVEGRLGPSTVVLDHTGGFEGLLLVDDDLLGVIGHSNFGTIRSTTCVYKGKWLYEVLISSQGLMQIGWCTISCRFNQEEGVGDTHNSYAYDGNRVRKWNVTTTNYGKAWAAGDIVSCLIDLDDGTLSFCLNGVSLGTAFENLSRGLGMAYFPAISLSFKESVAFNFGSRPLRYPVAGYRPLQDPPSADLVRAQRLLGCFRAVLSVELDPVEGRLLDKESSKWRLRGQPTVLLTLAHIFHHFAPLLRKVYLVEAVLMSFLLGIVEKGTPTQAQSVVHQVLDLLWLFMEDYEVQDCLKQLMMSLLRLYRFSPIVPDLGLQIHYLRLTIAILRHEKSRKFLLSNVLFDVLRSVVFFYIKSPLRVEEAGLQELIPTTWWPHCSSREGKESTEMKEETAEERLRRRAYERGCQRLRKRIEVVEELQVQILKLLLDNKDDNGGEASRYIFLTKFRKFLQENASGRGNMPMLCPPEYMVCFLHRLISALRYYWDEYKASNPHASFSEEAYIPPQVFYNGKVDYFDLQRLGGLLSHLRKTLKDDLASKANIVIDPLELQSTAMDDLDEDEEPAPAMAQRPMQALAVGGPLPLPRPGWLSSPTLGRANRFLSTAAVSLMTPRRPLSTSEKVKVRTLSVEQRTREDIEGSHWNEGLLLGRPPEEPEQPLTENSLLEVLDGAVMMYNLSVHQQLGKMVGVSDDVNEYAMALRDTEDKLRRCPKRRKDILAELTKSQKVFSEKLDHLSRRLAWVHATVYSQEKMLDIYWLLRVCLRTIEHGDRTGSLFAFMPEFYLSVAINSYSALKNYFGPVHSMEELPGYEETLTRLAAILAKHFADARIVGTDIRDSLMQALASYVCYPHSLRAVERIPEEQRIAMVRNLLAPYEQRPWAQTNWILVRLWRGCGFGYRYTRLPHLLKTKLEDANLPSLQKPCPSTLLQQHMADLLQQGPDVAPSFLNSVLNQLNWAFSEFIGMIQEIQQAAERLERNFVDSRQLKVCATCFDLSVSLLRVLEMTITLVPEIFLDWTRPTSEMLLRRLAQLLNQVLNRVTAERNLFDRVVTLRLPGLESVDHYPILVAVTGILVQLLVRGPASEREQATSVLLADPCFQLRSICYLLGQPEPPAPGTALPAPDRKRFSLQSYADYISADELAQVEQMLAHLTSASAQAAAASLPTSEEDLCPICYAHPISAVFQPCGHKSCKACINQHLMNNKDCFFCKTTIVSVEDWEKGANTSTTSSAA

kbtb7_human KBTBD7 = target: T3, kbtb7_human KBTBD7 (UniProt Q8WVZ9)
T3 sequence: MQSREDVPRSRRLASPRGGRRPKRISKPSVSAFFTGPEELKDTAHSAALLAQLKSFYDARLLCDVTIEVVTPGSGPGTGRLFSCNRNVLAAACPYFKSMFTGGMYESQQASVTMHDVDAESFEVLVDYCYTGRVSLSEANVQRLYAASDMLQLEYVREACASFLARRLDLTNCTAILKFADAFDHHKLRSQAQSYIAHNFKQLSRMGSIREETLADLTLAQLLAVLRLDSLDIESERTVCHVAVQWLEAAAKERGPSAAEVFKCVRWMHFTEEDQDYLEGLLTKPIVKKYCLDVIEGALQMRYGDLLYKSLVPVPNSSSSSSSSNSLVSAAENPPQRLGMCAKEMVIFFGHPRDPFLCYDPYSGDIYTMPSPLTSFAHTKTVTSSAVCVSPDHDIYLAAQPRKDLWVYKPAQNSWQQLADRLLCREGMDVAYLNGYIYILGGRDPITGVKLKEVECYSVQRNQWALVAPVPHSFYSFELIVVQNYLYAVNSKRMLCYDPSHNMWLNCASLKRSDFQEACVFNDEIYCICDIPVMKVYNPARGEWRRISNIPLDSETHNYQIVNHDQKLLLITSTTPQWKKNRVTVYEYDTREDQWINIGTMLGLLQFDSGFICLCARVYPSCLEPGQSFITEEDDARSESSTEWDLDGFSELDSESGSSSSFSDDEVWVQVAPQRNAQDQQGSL

Sequence of nedd4_human NEDD4 (P46934 whole entry): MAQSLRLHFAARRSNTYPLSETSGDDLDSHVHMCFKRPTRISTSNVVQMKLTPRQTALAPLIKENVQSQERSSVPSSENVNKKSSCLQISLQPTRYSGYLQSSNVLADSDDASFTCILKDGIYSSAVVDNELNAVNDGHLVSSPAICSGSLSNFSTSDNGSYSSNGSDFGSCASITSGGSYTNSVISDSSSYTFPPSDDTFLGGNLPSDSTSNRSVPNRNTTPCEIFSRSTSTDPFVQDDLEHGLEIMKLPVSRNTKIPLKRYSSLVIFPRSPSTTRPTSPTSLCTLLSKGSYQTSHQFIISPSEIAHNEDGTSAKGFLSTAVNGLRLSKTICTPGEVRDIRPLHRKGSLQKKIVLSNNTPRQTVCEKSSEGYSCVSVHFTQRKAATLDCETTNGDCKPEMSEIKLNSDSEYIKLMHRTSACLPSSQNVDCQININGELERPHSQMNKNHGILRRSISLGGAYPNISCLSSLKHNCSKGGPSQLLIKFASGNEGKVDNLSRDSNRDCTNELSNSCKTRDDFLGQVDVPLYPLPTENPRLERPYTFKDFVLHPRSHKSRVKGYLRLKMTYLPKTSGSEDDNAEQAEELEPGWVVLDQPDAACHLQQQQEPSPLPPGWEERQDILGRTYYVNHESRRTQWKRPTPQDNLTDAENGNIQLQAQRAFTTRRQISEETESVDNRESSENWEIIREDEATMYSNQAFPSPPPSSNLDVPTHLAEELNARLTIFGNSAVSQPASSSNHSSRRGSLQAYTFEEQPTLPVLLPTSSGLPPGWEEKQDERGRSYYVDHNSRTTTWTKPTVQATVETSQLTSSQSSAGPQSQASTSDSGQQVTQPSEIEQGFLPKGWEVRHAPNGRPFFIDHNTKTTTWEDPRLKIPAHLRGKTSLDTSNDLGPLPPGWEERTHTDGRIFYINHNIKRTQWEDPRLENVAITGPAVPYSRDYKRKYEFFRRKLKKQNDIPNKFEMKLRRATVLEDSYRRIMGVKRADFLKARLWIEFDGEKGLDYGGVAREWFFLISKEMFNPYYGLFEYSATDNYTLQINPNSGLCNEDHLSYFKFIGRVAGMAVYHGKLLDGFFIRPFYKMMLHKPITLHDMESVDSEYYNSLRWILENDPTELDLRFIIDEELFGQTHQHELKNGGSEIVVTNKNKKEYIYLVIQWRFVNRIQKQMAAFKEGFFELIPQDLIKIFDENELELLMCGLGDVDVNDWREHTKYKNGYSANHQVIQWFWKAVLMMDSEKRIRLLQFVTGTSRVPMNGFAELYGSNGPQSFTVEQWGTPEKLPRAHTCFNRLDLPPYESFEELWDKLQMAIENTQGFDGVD
Sequence of echa_human HADHA (P40939 whole entry): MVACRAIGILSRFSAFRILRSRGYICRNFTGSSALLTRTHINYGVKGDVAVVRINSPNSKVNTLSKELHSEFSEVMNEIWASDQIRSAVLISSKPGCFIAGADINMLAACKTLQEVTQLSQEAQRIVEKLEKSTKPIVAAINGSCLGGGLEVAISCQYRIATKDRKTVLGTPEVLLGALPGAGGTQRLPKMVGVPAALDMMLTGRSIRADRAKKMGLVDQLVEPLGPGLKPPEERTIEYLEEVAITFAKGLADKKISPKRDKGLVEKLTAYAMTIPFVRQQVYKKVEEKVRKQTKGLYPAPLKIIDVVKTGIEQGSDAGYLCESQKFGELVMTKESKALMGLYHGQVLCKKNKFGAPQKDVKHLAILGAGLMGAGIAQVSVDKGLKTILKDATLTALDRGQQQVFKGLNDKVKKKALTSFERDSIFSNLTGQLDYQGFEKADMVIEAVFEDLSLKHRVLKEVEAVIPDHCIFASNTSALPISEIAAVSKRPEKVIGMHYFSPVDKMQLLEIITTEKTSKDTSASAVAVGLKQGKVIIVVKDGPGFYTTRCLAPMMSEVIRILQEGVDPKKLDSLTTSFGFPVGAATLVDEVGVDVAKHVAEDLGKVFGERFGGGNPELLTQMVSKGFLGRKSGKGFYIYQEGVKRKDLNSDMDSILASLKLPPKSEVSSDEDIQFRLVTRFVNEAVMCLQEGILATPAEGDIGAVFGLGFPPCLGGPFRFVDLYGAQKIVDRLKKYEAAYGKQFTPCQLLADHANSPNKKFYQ

| Substance | effect of a mutation on the interaction (echa_human HADHA) | effect of a mutation on the interaction (tbc15_human TBC1D15) | effect of a mutation on the interaction (nedd4_human NEDD4) | effect of a mutation on the interaction (rn123_human RNF123) | effect of a mutation on the interaction (kbtb7_human KBTBD7) |
| --- | --- | --- | --- | --- | --- |
| Microtubule-associated protein 1 light chain 3 beta (Homo sapiens) (from UniProt Q9GZQ8) F52A;L53A | increasing interaction | decreasing interaction | decreasing interaction | increasing interaction | decreasing interaction |
| Microtubule-associated protein 1 light chain 3 beta (Homo sapiens) (from UniProt Q9GZQ8) R69A | disrupting interaction | decreasing interaction | decreasing interaction | decreasing interaction | disrupting interaction |
